Reference: patent US20170313750A1 (Novo Nordisk, published 2017)
Residue numbers refer to the chain shown, from its start. Numbered stars: 1 amine (or outer) side, 2 acyl side, 3 side chain; on linkers, the order of the positions; unused ones are H or OH. Side chains are listed from the residue outwards. * marks the point of attachment. Hexadecanoyl(16-SO3H) = O=C(CCCCCCCCCCCCCCCS(=O)(=O)O)*; C18 diacid = O=C(O)CCCCCCCCCCCCCCCCC(=O)*; γGlu = O=C(O)[C@H](CCC(=O)[*:2])N[*:1]; Isovaleryl = CC(C)CC(=O)*; AEEA = NCCOCCOCC(=O)O

T1: human Y5 receptor (Q15761, NPY5R_HUMAN, Uniprot) (human, UniProt Q15761 1-445)
T1 construct: whole, on cells; Assayed as membrane preparations of the expressing cells
T1 sequence (looked up): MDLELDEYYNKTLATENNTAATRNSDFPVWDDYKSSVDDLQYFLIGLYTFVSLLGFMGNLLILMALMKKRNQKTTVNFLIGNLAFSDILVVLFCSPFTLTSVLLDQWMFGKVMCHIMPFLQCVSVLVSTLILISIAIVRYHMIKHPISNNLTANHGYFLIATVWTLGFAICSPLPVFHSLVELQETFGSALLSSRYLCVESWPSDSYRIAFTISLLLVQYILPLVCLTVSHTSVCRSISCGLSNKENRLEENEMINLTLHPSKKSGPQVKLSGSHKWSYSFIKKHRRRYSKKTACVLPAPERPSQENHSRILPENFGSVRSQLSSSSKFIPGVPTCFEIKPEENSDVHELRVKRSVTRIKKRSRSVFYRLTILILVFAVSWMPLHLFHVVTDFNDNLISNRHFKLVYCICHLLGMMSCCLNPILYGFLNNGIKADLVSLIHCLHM

T2: human Y2 receptor (P49146, NPY2R_HUMAN, Uniprot) (human, UniProt P49146 1-381)
T2 sequence (looked up): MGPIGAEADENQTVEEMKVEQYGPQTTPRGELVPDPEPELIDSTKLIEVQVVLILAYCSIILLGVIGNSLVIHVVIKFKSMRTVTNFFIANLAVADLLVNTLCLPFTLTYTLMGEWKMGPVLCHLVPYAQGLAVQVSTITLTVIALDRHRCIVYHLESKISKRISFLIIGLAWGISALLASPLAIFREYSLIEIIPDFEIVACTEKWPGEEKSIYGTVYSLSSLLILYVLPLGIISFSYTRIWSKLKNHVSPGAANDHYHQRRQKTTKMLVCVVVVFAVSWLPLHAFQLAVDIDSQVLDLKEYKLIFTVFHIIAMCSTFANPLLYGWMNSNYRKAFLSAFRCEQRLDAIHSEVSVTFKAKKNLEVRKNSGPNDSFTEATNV

B1: N{alpha-4}-(3-Methylbutanoyl)-N{Epsilon-7}-[(4S)-4-carboxy-4-(17-carboxy-heptadecanoylamino)butanoyl]-[Arg4,Lys7,Thr9,Gln18,Val22,Tyr28,Trp30,Leu31]hPYY(4-36) (peptide)
peptide: RPEKPTEDASPEELQRYYVSLRHYYNWLTRQRY
HELM: PEPTIDE1{[CC(C)CC(=O)[*:2]].R.P.E.K.P.T.E.D.A.S.P.E.E.L.Q.R.Y.Y.V.S.L.R.H.Y.Y.N.W.L.T.R.Q.R.Y.[am]}|PEPTIDE2{[O=C(O)CCCCCCCCCCCCCCCCC(=O)[*:2]].[gGlu]}$PEPTIDE1,PEPTIDE2,5:R3-2:R2$$$V2.0
SMILES: CC(C)CC(=O)N[C@@H](CCCNC(=N)N)C(=O)N1CCC[C@H]1C(=O)N[C@@H](CCC(=O)O)C(=O)N[C@@H](CCCCNC(=O)CC[C@H](NC(=O)CCCCCCCCCCCCCCCCC(=O)O)C(=O)O)C(=O)N1CCC[C@H]1C(=O)N[C@H](C(=O)N[C@@H](CCC(=O)O)C(=O)N[C@@H](CC(=O)O)C(=O)N[C@@H](C)C(=O)N[C@@H](CO)C(=O)N1CCC[C@H]1C(=O)N[C@@H](CCC(=O)O)C(=O)N[C@@H](CCC(=O)O)C(=O)N[C@@H](CC(C)C)C(=O)N[C@@H](CCC(N)=O)C(=O)N[C@@H](CCCNC(=N)N)C(=O)N[C@@H](Cc1ccc(O)cc1)C(=O)N[C@@H](Cc1ccc(O)cc1)C(=O)N[C@H](C(=O)N[C@@H](CO)C(=O)N[C@@H](CC(C)C)C(=O)N[C@@H](CCCNC(=N)N)C(=O)N[C@@H](Cc1c[nH]cn1)C(=O)N[C@@H](Cc1ccc(O)cc1)C(=O)N[C@@H](Cc1ccc(O)cc1)C(=O)N[C@@H](CC(N)=O)C(=O)N[C@@H](Cc1c[nH]c2ccccc12)C(=O)N[C@@H](CC(C)C)C(=O)N[C@H](C(=O)N[C@@H](CCCNC(=N)N)C(=O)N[C@@H](CCC(N)=O)C(=O)N[C@@H](CCCNC(=N)N)C(=O)N[C@@H](Cc1ccc(O)cc1)C(N)=O)[C@@H](C)O)C(C)C)[C@@H](C)O
notes: also called Compound 44; 44
B2: N{alpha-4}-(3-Methylbutanoyl)-N{Epsilon-10}-[(4S)-4-carboxy-4-[[2-[2-[2-[[(4S)-4-carboxy-4-(17-carboxyheptadecanoylamino)butanoyl]amino]ethoxy]ethoxy]-acetyl]am … (peptide)
peptide: Isovaleryl-RPEAPGK([γGlu-AEEA-γGlu-C18 diacid])DASPEELQRYYAELRHYYNWLTRQRY-NH2
SMILES: CC(C)CC(=O)N[C@@H](CCCNC(=N)N)C(=O)N1CCC[C@H]1C(=O)N[C@@H](CCC(=O)O)C(=O)N[C@@H](C)C(=O)N1CCC[C@H]1C(=O)NCC(=O)N[C@@H](CCCCNC(=O)CC[C@H](NC(=O)COCCOCCNC(=O)CC[C@H](NC(=O)CCCCCCCCCCCCCCCCC(=O)O)C(=O)O)C(=O)O)C(=O)N[C@@H](CC(=O)O)C(=O)N[C@@H](C)C(=O)N[C@@H](CO)C(=O)N1CCC[C@H]1C(=O)N[C@@H](CCC(=O)O)C(=O)N[C@@H](CCC(=O)O)C(=O)N[C@@H](CC(C)C)C(=O)N[C@@H](CCC(N)=O)C(=O)N[C@@H](CCCNC(=N)N)C(=O)N[C@@H](Cc1ccc(O)cc1)C(=O)N[C@@H](Cc1ccc(O)cc1)C(=O)N[C@@H](C)C(=O)N[C@@H](CCC(=O)O)C(=O)N[C@@H](CC(C)C)C(=O)N[C@@H](CCCNC(=N)N)C(=O)N[C@@H](Cc1c[nH]cn1)C(=O)N[C@@H](Cc1ccc(O)cc1)C(=O)N[C@@H](Cc1ccc(O)cc1)C(=O)N[C@@H](CC(N)=O)C(=O)N[C@@H](Cc1c[nH]c2ccccc12)C(=O)N[C@@H](CC(C)C)C(=O)N[C@H](C(=O)N[C@@H](CCCNC(=N)N)C(=O)N[C@@H](CCC(N)=O)C(=O)N[C@@H](CCCNC(=N)N)C(=O)N[C@@H](Cc1ccc(O)cc1)C(N)=O)[C@@H](C)O
notes: also called Compound 53; 53
B3: N{alpha-4}-(3-Methylbutanoyl)-N{Epsilon-10}-[(4S)-4-carboxy-4-[[2-[2-[2-[[(4S)-4-carboxy-4-(16-sulfohexadecanoylamino)butanoyl]amino]ethoxy]-ethoxy]acetyl]amino … (peptide)
peptide: Isovaleryl-RPEAPPK([γGlu-AEEA-γGlu-Hexadecanoyl(16-SO3H)])DASPEELQRYYASLRHYYNWLTRQRY-NH2
SMILES: CC(C)CC(=O)N[C@@H](CCCNC(=N)N)C(=O)N1CCC[C@H]1C(=O)N[C@@H](CCC(=O)O)C(=O)N[C@@H](C)C(=O)N1CCC[C@H]1C(=O)N1CCC[C@H]1C(=O)N[C@@H](CCCCNC(=O)CC[C@H](NC(=O)COCCOCCNC(=O)CC[C@H](NC(=O)CCCCCCCCCCCCCCCS(=O)(=O)O)C(=O)O)C(=O)O)C(=O)N[C@@H](CC(=O)O)C(=O)N[C@@H](C)C(=O)N[C@@H](CO)C(=O)N1CCC[C@H]1C(=O)N[C@@H](CCC(=O)O)C(=O)N[C@@H](CCC(=O)O)C(=O)N[C@@H](CC(C)C)C(=O)N[C@@H](CCC(N)=O)C(=O)N[C@@H](CCCNC(=N)N)C(=O)N[C@@H](Cc1ccc(O)cc1)C(=O)N[C@@H](Cc1ccc(O)cc1)C(=O)N[C@@H](C)C(=O)N[C@@H](CO)C(=O)N[C@@H](CC(C)C)C(=O)N[C@@H](CCCNC(=N)N)C(=O)N[C@@H](Cc1c[nH]cn1)C(=O)N[C@@H](Cc1ccc(O)cc1)C(=O)N[C@@H](Cc1ccc(O)cc1)C(=O)N[C@@H](CC(N)=O)C(=O)N[C@@H](Cc1c[nH]c2ccccc12)C(=O)N[C@@H](CC(C)C)C(=O)N[C@H](C(=O)N[C@@H](CCCNC(=N)N)C(=O)N[C@@H](CCC(N)=O)C(=O)N[C@@H](CCCNC(=N)N)C(=O)N[C@@H](Cc1ccc(O)cc1)C(N)=O)[C@@H](C)O
notes: also called Compound 69; 69
B4: N{alpha-4}-(3-Methylbutanoyl)-N{Epsilon-7}-[2-[2-[2-[[(4S)-4-carboxy-4-(13-carboxytridecanoylamino)butanoyl]amino]ethoxy]ethoxy]acetyl]-[Arg4,Lys7,Pro9,Gln18,Ty … (peptide)
peptide: B1 peptide with T6P, V19A
modifications: N-terminal alpha-amino (position 4): 3-methylbutanoyl; Lys7 (hPYY(1-36) numbering) epsilon-amino: [2-[2-[2-[[(4S)-4-carboxy-4-(13-carboxytridecanoylamino)butanoyl]amino]ethoxy]ethoxy]acetyl]; C-terminal amide
notes: also called Compound 71; 71
B5: N{alpha-4}-(3-Methylbutanoyl)-N{Epsilon-7}-[(4S)-4-carboxy-4-[[(4S)-4-carboxy-4-(19-carboxynonadecanoylamino)butanoyl]amino]butanoyl]-[Arg4,Lys7,Pro9,Gln18, … (peptide)
peptide: B1 peptide with T6P, V19A
modifications: N-terminal alpha-amino (position 4): 3-methylbutanoyl; Lys7 (hPYY(1-36) numbering) epsilon-amino: [(4S)-4-carboxy-4-[[(4S)-4-carboxy-4-(19-carboxynonadecanoylamino)butanoyl]amino]butanoyl]; C-terminal amide
notes: also called Compound 12; 12
B6: N{alpha-4}-(3-Methylbutanoyl)-N{Epsilon-10}-[(4S)-4-carboxy-4-[[2-[2-[2-[[(4S)-4-carboxy-4-(17-carboxyheptadecanoylamino)butanoyl]amino]ethoxy]ethoxy]-acetyl]am … (peptide)
peptide: Isovaleryl-RPEAPGK([γGlu-AEEA-γGlu-C18 diacid])DASPEELQRYYESLRHYYNWLTRQRY-NH2
SMILES: CC(C)CC(=O)N[C@@H](CCCNC(=N)N)C(=O)N1CCC[C@H]1C(=O)N[C@@H](CCC(=O)O)C(=O)N[C@@H](C)C(=O)N1CCC[C@H]1C(=O)NCC(=O)N[C@@H](CCCCNC(=O)CC[C@H](NC(=O)COCCOCCNC(=O)CC[C@H](NC(=O)CCCCCCCCCCCCCCCCC(=O)O)C(=O)O)C(=O)O)C(=O)N[C@@H](CC(=O)O)C(=O)N[C@@H](C)C(=O)N[C@@H](CO)C(=O)N1CCC[C@H]1C(=O)N[C@@H](CCC(=O)O)C(=O)N[C@@H](CCC(=O)O)C(=O)N[C@@H](CC(C)C)C(=O)N[C@@H](CCC(N)=O)C(=O)N[C@@H](CCCNC(=N)N)C(=O)N[C@@H](Cc1ccc(O)cc1)C(=O)N[C@@H](Cc1ccc(O)cc1)C(=O)N[C@@H](CCC(=O)O)C(=O)N[C@@H](CO)C(=O)N[C@@H](CC(C)C)C(=O)N[C@@H](CCCNC(=N)N)C(=O)N[C@@H](Cc1c[nH]cn1)C(=O)N[C@@H](Cc1ccc(O)cc1)C(=O)N[C@@H](Cc1ccc(O)cc1)C(=O)N[C@@H](CC(N)=O)C(=O)N[C@@H](Cc1c[nH]c2ccccc12)C(=O)N[C@@H](CC(C)C)C(=O)N[C@H](C(=O)N[C@@H](CCCNC(=N)N)C(=O)N[C@@H](CCC(N)=O)C(=O)N[C@@H](CCCNC(=N)N)C(=O)N[C@@H](Cc1ccc(O)cc1)C(N)=O)[C@@H](C)O
notes: also called Compound 50; 50

Molecular target: T3, human Y4 receptor (P50391, NPY4R_HUMAN, Uniprot) (human, UniProt P50391 1-375)
T3 construct: whole, on cells; Assayed as membrane preparations of the expressing cells
Test: SPA vs [125I]-PP
Experimental: (§1) Human Y receptor SPA binding assay were performed in white 96-well plates in a total volume of 200 μl per well.
(§2) Plates were sealed and incubated at +25° C. for 2 hours in a plate shaker set at 400 rpm and thereafter centrifuged at 1500 rpm for 10 minutes prior to reading of luminescence on a microplate scintillation and luminescence counter.

T3 sequence (P50391 whole entry, one chain of several): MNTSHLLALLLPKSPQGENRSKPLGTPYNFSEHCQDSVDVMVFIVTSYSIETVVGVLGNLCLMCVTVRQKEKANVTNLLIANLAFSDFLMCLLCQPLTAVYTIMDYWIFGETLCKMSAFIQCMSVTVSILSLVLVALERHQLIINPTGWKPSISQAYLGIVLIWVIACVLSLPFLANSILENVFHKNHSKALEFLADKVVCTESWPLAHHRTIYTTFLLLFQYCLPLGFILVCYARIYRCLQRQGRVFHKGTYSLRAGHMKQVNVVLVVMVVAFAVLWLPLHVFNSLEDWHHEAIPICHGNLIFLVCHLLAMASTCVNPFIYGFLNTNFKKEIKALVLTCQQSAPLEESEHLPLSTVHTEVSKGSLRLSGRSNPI

Binder	Ki [nM]
B1	6670
B2	9290
Isovaleryl-RPEAPGK([AEEA-AEEA-γGlu-C18 diacid])DASPEELQRYYAELRHYYNWLTRQRY-NH2 (also called Compound 52; 52)	5690
B3	5690
Isovaleryl-RPEK([γGlu-C18 diacid])PTEDASPEELQRYYQSLRHYYNWLTRQRY-NH2 (also called Compound 43)	6400

Molecular target: T1, human Y5 receptor (Q15761, NPY5R_HUMAN, …)
Test: ratio of SPA values, Y2 as reference
Experimental: as §1, §2

Binder	Ratio of Y5/Y2 EC50 values
B1	1420
B2	393
Isovaleryl-RPEAPGK([AEEA-AEEA-γGlu-C18 diacid])DASPEELQRYYAELRHYYNWLTRQRY-NH2 (also called Compound 52; 52)	275

Molecular target: T3, human Y4 receptor (P50391, NPY4R_HUMAN, …)
Test: ratio of SPA values, Y2 as reference
Experimental: as §1, §2

Binder	Ratio of Y4/Y2 EC50 values
B1	20200
B2	8080
Isovaleryl-RPEAPGK([AEEA-AEEA-γGlu-C18 diacid])DASPEELQRYYAELRHYYNWLTRQRY-NH2 (also called Compound 52; 52)	8620

Molecular target: T2, human Y2 receptor (P49146, NPY2R_HUMAN, …)
Test: cell-based or functional assay

Binder	Y2 EC50, Actone functional potency assay [nM]
B4	0.5
B1	1.35
B2	0.77
Isovaleryl-RPEK([γGlu-C18 diacid])PTEDASPEELQRYYQSLRHYYNWLTRQRY-NH2 (also called Compound 43)	0.77
B5	4.35

Molecular target: T1, human Y5 receptor (Q15761, NPY5R_HUMAN, …)
Test: SPA vs [125I]-PYY(1-36)
Experimental: as §1, §2

Binder	Ki [nM]
B1	470
B2	452
Isovaleryl-RPEAPGK([AEEA-AEEA-γGlu-C18 diacid])DASPEELQRYYAELRHYYNWLTRQRY-NH2 (also called Compound 52; 52)	182
Isovaleryl-RPEAPGK([γGlu-AEEA-γGlu-C18 diacid])DASPEELQRYYASLRHYYNWLTRQRY-NH2 (also called Compound 59; 59)	279
B6	122
B3	146
Isovaleryl-RPEK([γGlu-C18 diacid])PTEDASPEELQRYYQSLRHYYNWLTRQRY-NH2 (also called Compound 43)	509

Molecular target: T2, human Y2 receptor (P49146, NPY2R_HUMAN, …)
Test: SPA vs [125I]-PYY(1-36)
Experimental: as §1, §2

Binder	Ki [nM]
B4	0.51
B1	0.33
B2	1.15
Isovaleryl-RPEAPGK([AEEA-AEEA-γGlu-C18 diacid])DASPEELQRYYAELRHYYNWLTRQRY-NH2 (also called Compound 52; 52)	0.66
B6	3.3
B3	0.94
B5	1.1
